The data set concerns the molecule itself. The data set can be described thus: cryo-EM structure; monomer to monomer within the homodimer; 5 µM mKu dimer with equimolar 40-bp linear dsDNA or short hairpin DNA, 30 min at 4°C.

B1: mycobacterial Ku (mKu), Mycobacterium tuberculosis, wild type (natural protein)
chain: MRAIWTGSIAFGLVNVPVKVYSATADHDIRFHQVHAKDNGRIRYKRVCEACGEVVDYRDLARAYESGDGQMVAITDDDIASLPEERSREIEVLEFVPAADVDPMMFDRSYFLEPDSKSSKSYVLLAKTLAETDRMAIVHFTLRNKTRLAALRVKDFGKREVMMVHTLLWPDEIRDPDFPVLDQKVEIKPAELKMAGQVVDSMADDFNPDRYHDTYQEQLQELIDTKLEGGQAFTAEDQPRLLDEPEDVSDLLAKLEASVKARSKANSNVPTPP
notes: Ku protein of Mycobacterium tuberculosis, gene Rv0937c, 31 kDa; the C-terminal 46 residues are not seen in the maps; also called mKu WT; mKu-WT
For the protein B1, the binding result was “binds”.

The record behind these values is article PMC12784962, “https://orcid.org/0000-0002-3633-7823 Baral Joydeep Department of Bioscience and Biotechnology, Indian Institute of Technology Kharagpur, West Midnapore 721302, West Bengal, India”.
